Consider 1 molecule from patent US20240101667A1, “METHODS FOR IDENTIFYING LILRB-BLOCKING ANTIBODIES” (THE BOARD OF REGENTS OF THE UNIVERSITY OF TEXAS SYSTEM, priority 2020, published 2024).

What all share (type): in vivo, mouse
In test [1] the test system is MLL-AF9 AML cells expressing B3-FL or B3delICD. The experiment in a line: Immuno-competent mice transplanted with MLL-AF9 AML cells expressing B3-FL or B3delICD. To be noted: versus control IgG. The text has this:
FIGS. 7A-N. Blocking anti-LILRB3 antibody prevents monocytic AML development. (FIG. 7A) Epitope binning of 30 high-affinity IgGs. (FIG. 7B) CFU assay of mouse MLL-AF9 AML cells in the presence of above IgGs (n=3 independent experiments). (FIG. 7C) Binding affinities of the two IgGs from bin #3. (FIG. 7D) Upper: Schematic of treatment. Lower: Percentages of GFP^+ MLL-AF9 mouse AIL cells in peripheral blood (PB), bone marrow (BM), spleen (SPL), and liver (LV) of mice transplanted with AML cells expressing B3-FL or B3delICD and injected with IgG or anti-LILRB3 #1 N297A (n=3 independent mice). (FIG. 7E) Overall survival of mice transplanted with indicated AML cells as above. (FIG. 7F) CFU assay of MLL-AF9 mouse AML cells expressing B3-FL or B3delICD in the presence of IgG or anti-LILRB3 #1 N297A (n=3 independent experiments) (FIG. 7G) Upper: Schematic of treatment. Recipient mice were injected with mouse IgG or anti-mCD8 to deplete CD8 T cells. Lower: Percentages of GFP^+ MLL-AF9 mouse AML cells in peripheral blood (PB), bone marrow (BM), spleen (SPL), and liver (LV) of mice transplanted with AML cells expressing B3-FL or B3delICD and injected with IgG or anti-LILRB3 #1 LALAPG (n=4 mice). (FIG. 7H) Survival of mice as in panel h (n=4 independent mice). (FIG. 7I) Upper: Schematic of treatment. Lower: Whole-body images of NSG mice transplanted with luciferase-expressing THP-1 cells and treated with IgG or anti-LILRB3 #1 N297A (#1NA). (FIG. 7J) Overall survival of the mice shown in panel h (n=3 independent mice). (FIG. 7K) Upper: Schematic of treatment. Lower: Whole-body images of NSG mice transplanted with luciferase-expressing Molm13 cells, injected with activated T cells, and treated with IgG or #1NA. (FIG. 7L) Luciferase signaling as a function of time in mice treated as described in panel k. (FIG. 7M) Overall survival of mice treated as described in panel k (n=3 independent mice). […] The data are presented as mean±s.e.m, and p values were calculated by two-tailed t-test except for FIG. 7E, FIG. 7H, FIG. 7J and FIG. 7M by log-rank test. […]

For another test, the system named is Molm13 AML cells. Description: NSG mice with Molm13 AML cells and activated human T cells. From the text:
FIGS. 7A-N. Blocking anti-LILRB3 antibody prevents monocytic AML development. (FIG. 7A) Epitope binning of 30 high-affinity IgGs. (FIG. 7B) CFU assay of mouse MLL-AF9 AML cells in the presence of above IgGs (n=3 independent experiments). (FIG. 7C) Binding affinities of the two IgGs from bin #3. (FIG. 7D) Upper: Schematic of treatment. Lower: Percentages of GFP^+ MLL-AF9 mouse AIL cells in peripheral blood (PB), bone marrow (BM), spleen (SPL), and liver (LV) of mice transplanted with AML cells expressing B3-FL or B3delICD and injected with IgG or anti-LILRB3 #1 N297A (n=3 independent mice). (FIG. 7E) Overall survival of mice transplanted with indicated AML cells as above. (FIG. 7F) CFU assay of MLL-AF9 mouse AML cells expressing B3-FL or B3delICD in the presence of IgG or anti-LILRB3 #1 N297A (n=3 independent experiments) (FIG. 7G) Upper: Schematic of treatment. Recipient mice were injected with mouse IgG or anti-mCD8 to deplete CD8 T cells. Lower: Percentages of GFP^+ MLL-AF9 mouse AML cells in peripheral blood (PB), bone marrow (BM), spleen (SPL), and liver (LV) of mice transplanted with AML cells expressing B3-FL or B3delICD and injected with IgG or anti-LILRB3 #1 LALAPG (n=4 mice). (FIG. 7H) Survival of mice as in panel h (n=4 independent mice). (FIG. 7I) Upper: Schematic of treatment. Lower: Whole-body images of NSG mice transplanted with luciferase-expressing THP-1 cells and treated with IgG or anti-LILRB3 #1 N297A (#1NA). (FIG. 7J) Overall survival of the mice shown in panel h (n=3 independent mice). (FIG. 7K) Upper: Schematic of treatment. Lower: Whole-body images of NSG mice transplanted with luciferase-expressing Molm13 cells, injected with activated T cells, and treated with IgG or #1NA. (FIG. 7L) Luciferase signaling as a function of time in mice treated as described in panel k. (FIG. 7M) Overall survival of mice treated as described in panel k (n=3 independent mice). (FIG. 7N) Analyses of T cells in peripheral blood of mice treated as described in panel 1 at 22 days after Molm13 AML cell transplantation. Upper: Flow cytometry analyses. Lower: Plot of T cell percentages (n=3 independent mice). The data are presented as mean±s.e.m, and p values were calculated by two-tailed t-test except for FIG. 7E, FIG. 7H, FIG. 7J and FIG. 7M by log-rank test.
Mice. C57BL/6J and NOD-SCID IL2Rγ-null (NSG) mice were purchased from and maintained at the animal core facility of the University of Texas Southwestern Medical Center. GFP-specific TCR mice (Jedi mice, JAX lab stock No: 028062) were purchased from the Jackson Lab. C57BL/6J CD45.1 mice were injected intraperitoneally with 1×10^6 irradiated MLL-AF9 mouse AML cells (3000 cGy) and LPS or LPS alone as a control. The injection was repeated 10 days later. […]

In test [2] the test system is human AML cells (CD45+/CD33+). Description: M5 AML patient-derived xenograft in NSG mice (primary transplantation). From the text: (FIG. 8A) Upper: Schematic of treatment. NSG mice were transplanted with monocytic AML patient peripheral blood sample (depleted red blood cells) and given IgG or #1NA. […] (FIG. 8C) The percentages of human T cells in NSG mice treated as indicated in panel a (n=8 independent mice). (FIG. 8D) Overall survival of the NSG mice treated as indicated in panel a (n=8 independent mice). (FIG. 8E) Schematic of treatment. NSG mice were transplanted with monocytic AML cells (derived from BM of NSG mice engrafted with monocytic AML patient peripheral blood samples) with treatment of IgG or anti-LILRB3 #1 LALAPG. (FIG. 8F) Flow cytometry analyses of LILRB3 expression on human AML cells in the mouse bone marrow. (FIG. 8G) The percentages of human AML cells (CD45^+/CD33^+) in NSG mice after treatment of IgG or #1NA as indicated in panel e. (n=5 independent mice). (FIG. 8H) The percentages of human T cells in NSG mice treated as indicated in panel e (n=5 independent mice). (FIG. 8I), Survival of NSG mice treated as indicated in panel e (n=5 independent mice). The data are presented as mean s.e.m, and p values were calculated by two-tailed t-test except for d and i by log-rank test.
Primary human leukemia. The primary human AML samples was obtained from the University of Texas Southwestern Medical Center. […] For primary transplantation, leukemia cells isolated from donor peripheral blood was injected into irradiated NSG mice (200 cGy), and antibody or IgG was introduced intravenously 8 days after injection. For secondary transplantation, human leukemia cells from frozen BM of NSG mice that were engrafted with patient AML cells were transplanted into sublethally-irradiated NSG recipients.
(In general: In xenograft studies the graft and the host belong to different species.)

B1: anti-LILRB3 #1 N297A: IgG #1 with Fc glycosylation N297A mutation, defective Fc-mediated effector functions (antibody, V domains shown)
VH: EVQLVESGGGVVQPGRSLRLSCAASGFTFSSYGMHWVRQAPGKGLEWVAFIRYDGSNKYYADSVKGRFTISRDNSKNTLYLQMNSLRAEDTAVYYCAKAGFSGWYYYGMDVWGQGTMVTVSS
VL: DIVMTQSPSSLSASVGDRLTITCRASQSISTYLNWYQQKPGKAPKLLIYGASSLQSGVPSRFSGSGSGTDFTLTISSLQPEDFATYFCQQSYGLPLTFGGGTKVDIK
Consider B1, for which, in test [1], the “B3del ICD AML development” value is on record as “no detectable difference” and the “development of LILRB3-expressing (B3-FL) AML” value is given as “significantly delayed development of LILRB3-expressing AML”. Moreover, the “effect on mice without the injection of T cells” value with Molm13 AML cells (no T cells) was “little effect”. The “T cells in treated mice” value with Molm13 AML cells (peripheral blood, 22 days after Molm13 transplantation, versus IgG) is given as “significantly more T cells”. Moreover, in the test on Molm13 AML cells (with activated human T cells), the “leukemia in one of the treated mice” value was “largely eliminated”. In the test with Molm13 AML cells (with activated human T cells, antibody at day 8, versus IgG), the leukemia progression entry was “significantly slower”. In test [2] (NSG mice), the “percentages of human autologous T cells” value was “increased the percentages of human autologous T cells”. Further, the “AML burden in peripheral blood, bone marrow, spleen, and liver” value in test [2] (versus IgG) is “significantly lower AML burden”. The survival result in test [2] (versus control IgG) is given as “significant survival advantage”.
